± gives the uncertainty stated by the source.

The series in a line: self-splicing fitness, log relative to wild type (ln ratio); higher = more splicing; Tetrahymena group I intron in knt gene, E. coli kanamycin selection, DiMSum; sequences stand for … in CUCUCU…GGAGGGAAAAGUUAUCAGGCAUGCACCUGGUAGCUAGUCUUUAAACCAAUAGAUUGCAUCGGUUUAAAAGGCAAGACCGUCAAAUUGCGGGAAAGGGGUCAACAGCCGUUCAGUACCAAGUCUCAGGGGAAACUUUGAGAUGGCCUUGCAAAGGGUAUGGUAAUAAGCUGACGGACAUGGUCCUAACCACGCAGCCAAGUCCUAAGUCAACAGAUCUUCUGUUGAUAUGGAUGCAGUUCACAGACUAAAUGUCGGUCGGGGAAGAUGUAUUCUUCUCAUAAGAUAUAGUCGGACCUCUCCUUAAUGGGAGCUAGCGGAUGAAGUGAUGCAACACUGGAGCCGCUGGGAACUAAUUUGUAUGCGAAAGUAUAUUGAUUAGUUUUGGAGUACUCGUGGUCG
A digest of the protocol: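 DiMSum derived fitness as the error-weighted combination of fold changes across replicates, kanamycin versus no kanamycin, normalised to wild type. E. coli BL21(DE3) held the library, which randomised all eight P1ex-region intron nucleotides within the knt kanamycin-resistance gene on pET-22b(+). Six replicate transformations grew overnight at 37°C or 30°C on LB agar with or without 25 μg/mL kanamycin, also containing 100 μg/mL carbenicillin, 50 μM IPTG and 0.2% rhamnose, and pooled colonies were amplicon-sequenced on an Illumina HiSeq 2500.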

AGUGAGCAAUAUUACGAGCU: the “self-splicing fitness (ln)” value by setting is: (30 °C) -2.44 ± 0.23; (37 °C) -1.07 ± 0.5.

As for GGUAAGCAAUAUUACGAGAG, the “self-splicing fitness (ln)” value was -3.7 ± 0.4 (30 °C) and -3.25 ± 0.25 (37 °C). As to AACUAGCAAUAUUACGCUAG, the “self-splicing fitness (ln)” value runs as follows: (30 °C) -4.12 ± 0.23; (37 °C) -2.81 ± 0.22. On the same counts, the results for ACAAAGCAAUAUUACGAUGA are -0.411 ± 0.048 and -0.201 ± 0.058. For the sequence ACAUAGCAAUAUUACGCCUU, the “self-splicing fitness (ln)” value (30 °C) is -1.25 ± 0.083 and the “self-splicing fitness (ln)” value (37 °C) was -0.057 ± 0.085.

Regarding AUCGAGCAAUAUUACGGUGU, the “self-splicing fitness (ln)” value was -2.74 ± 0.1 (30 °C) and -1.71 ± 0.14 (37 °C).

With ACAUAGCAAUAUUACGAGGC, the “self-splicing fitness (ln)” value is, setting by setting: (30 °C) -4.03 ± 0.36; (37 °C) -2.2 ± 0.32. On the same counts, the results for UAAUAGCAAUAUUACGUUGC are -3.64 ± 0.23 and -2.71 ± 0.31. Consider AAGUAGCAAUAUUACGUGUC, for which the “self-splicing fitness (ln)” value runs as follows: (30 °C) -2.83 ± 0.27; (37 °C) -2.4 ± 0.28. The corresponding values for AACAAGCAAUAUUACGUAUU are -1.77 ± 0.079 and -0.983 ± 0.092.

As to GCUAAGCAAUAUUACGGCUA, the “self-splicing fitness (ln)” value (30 °C) was -0.811 ± 0.093 and the “self-splicing fitness (ln)” value (37 °C) is -0.399 ± 0.11. On the same counts, the results for CUGUAGCAAUAUUACGUUAU are -3.21 ± 0.22 and -2.83 ± 0.23. On the same counts, the results for UCGAAGCAAUAUUACGGGUU are -4.87 ± 0.29 and -1.47 ± 0.14.

As to CUUGAGCAAUAUUACGGUUC, the “self-splicing fitness (ln)” value (30 °C) was -3.56 ± 0.35 and the “self-splicing fitness (ln)” value (37 °C) is -2.51 ± 0.36. For AUAGAGCAAUAUUACGAUGA, the “self-splicing fitness (ln)” value was -2.14 ± 0.21 (30 °C) and -1.75 ± 0.29 (37 °C). As to CGAAAGCAAUAUUACGGAUG, the “self-splicing fitness (ln)” value is, setting by setting: (30 °C) -0.462 ± 0.066; (37 °C) -0.00232 ± 0.091. The corresponding values for CGUUAGCAAUAUUACGGGGG are -4.81 ± 0.45 and -3.46 ± 0.29. The corresponding values for CACAAGCAAUAUUACGAGGU are -3.59 ± 0.17 and -2.2 ± 0.18. In the case of AAGAAGCAAUAUUACGCCAC, for the setting “37 °C”, the “self-splicing fitness (ln)” value was -2.7 ± 0.48. With CAUCAGCAAUAUUACGAUAG, the “self-splicing fitness (ln)” value by setting is: (30 °C) -0.277 ± 0.1; (37 °C) -0.0749 ± 0.14. On the same counts, the results for CAGCAGCAAUAUUACGGGAA are -3.17 ± 0.33 and -1.58 ± 0.16. On to UCGAAGCAAUAUUACGUAAU, for which the “self-splicing fitness (ln)” value by setting is: (30 °C) -3.88 ± 0.15; (37 °C) -1.62 ± 0.12. As for CAUAAGCAAUAUUACGUCCG, the “self-splicing fitness (ln)” value is, setting by setting: (30 °C) -0.727 ± 0.081; (37 °C) 1.11 ± 0.12. The corresponding values for CGCUAGCAAUAUUACGGUCA are -0.0527 ± 0.076 and 0.137 ± 0.079.

On to GUCCAGCAAUAUUACGUGCA, for which the “self-splicing fitness (ln)” value reads like this: (30 °C) -1.55 ± 0.09; (37 °C) -0.54 ± 0.1. The corresponding values for GGUAAGCAAUAUUACGCAAU are -1.38 ± 0.11 and -1.44 ± 0.14. With UCGGAGCAAUAUUACGAGCG, the “self-splicing fitness (ln)” value (30 °C) was -2.48 ± 0.23 and the “self-splicing fitness (ln)” value (37 °C) was -0.586 ± 0.23. On the same counts, the results for GCACAGCAAUAUUACGUCCC are -0.0609 ± 0.11 and -0.44 ± 0.11. On to UCCAAGCAAUAUUACGAUAC, for which the “self-splicing fitness (ln)” value (30 °C) was -3.99 ± 0.42 and the “self-splicing fitness (ln)” value (37 °C) is -1.11 ± 0.3.

UGUCAGCAAUAUUACGUGUC: the “self-splicing fitness (ln)” value (37 °C) is -2.37 ± 0.21. Regarding CGUGAGCAAUAUUACGCACA, the “self-splicing fitness (ln)” value by setting is: (30 °C) -1.32 ± 0.16; (37 °C) -0.702 ± 0.18. The corresponding values for UUGAAGCAAUAUUACGCCUA are 0.0255 ± 0.13 and 0.487 ± 0.22. The corresponding values for UUCAAGCAAUAUUACGGUUA are -0.0762 ± 0.097 and 0.272 ± 0.086.

In the case of AUUCAGCAAUAUUACGUGAA, the “self-splicing fitness (ln)” value is -0.88 ± 0.065 (30 °C) and -0.398 ± 0.084 (37 °C). For ACUAAGCAAUAUUACGAUUC, the “self-splicing fitness (ln)” value (30 °C) is -2.12 ± 0.091 and the “self-splicing fitness (ln)” value (37 °C) was -0.397 ± 0.11. The corresponding values for GCGCAGCAAUAUUACGGGUC are -2.71 ± 0.11 and -0.449 ± 0.092. Take AGAAAGCAAUAUUACGUUAU: the “self-splicing fitness (ln)” value was -2.29 ± 0.099 (30 °C) and -1.58 ± 0.13 (37 °C). Consider UACAAGCAAUAUUACGACCU, for which the “self-splicing fitness (ln)” value runs as follows: (30 °C) -0.732 ± 0.068; (37 °C) -0.688 ± 0.086. On to UACCAGCAAUAUUACGGACG, for which the “self-splicing fitness (ln)” value (30 °C) is -0.177 ± 0.055 and the “self-splicing fitness (ln)” value (37 °C) turned out to be 0.479 ± 0.088. Consider UUUUAGCAAUAUUACGCGGC, for which the “self-splicing fitness (ln)” value (37 °C) was -2.34 ± 0.39. With AACUAGCAAUAUUACGCACG, the “self-splicing fitness (ln)” value (30 °C) is -0.871 ± 0.098 and the “self-splicing fitness (ln)” value (37 °C) was -0.361 ± 0.12.

Consider CCCAAGCAAUAUUACGGAGA, for which the “self-splicing fitness (ln)” value (37 °C) is -1.03 ± 0.17.

Regarding GACCAGCAAUAUUACGUACU, the “self-splicing fitness (ln)” value by setting is: (30 °C) -0.709 ± 0.069; (37 °C) 0.123 ± 0.082. Consider CGUAAGCAAUAUUACGGUAG, for which the “self-splicing fitness (ln)” value by setting is: (30 °C) -2.56 ± 0.14; (37 °C) -1.4 ± 0.1. Consider UAGAAGCAAUAUUACGCGCC, for which the “self-splicing fitness (ln)” value runs as follows: (30 °C) -3.18 ± 0.24; (37 °C) -0.65 ± 0.13. On the same counts, the results for AAAUAGCAAUAUUACGGGUU are -1.92 ± 0.14 and -0.924 ± 0.2.

GGUCAGCAAUAUUACGACAG: the “self-splicing fitness (ln)” value (30 °C) is -0.391 ± 0.11 and the “self-splicing fitness (ln)” value (37 °C) worked out at 0.151 ± 0.13. The corresponding values for GCUUAGCAAUAUUACGAUUU are -0.0141 ± 0.091 and -0.234 ± 0.12. In the case of AGAAAGCAAUAUUACGAACG, the “self-splicing fitness (ln)” value was -0.489 ± 0.084 (30 °C) and -0.004 ± 0.12 (37 °C). The corresponding values for AAGAAGCAAUAUUACGGACG are -0.677 ± 0.071 and 0.0583 ± 0.11. On the same counts, the results for UUCAAGCAAUAUUACGUUCU are -2.22 ± 0.14 and -2.14 ± 0.17. On the same counts, the results for UCAUAGCAAUAUUACGCGGG are -2.79 ± 0.14 and -1.99 ± 0.12.

Consider AGCCAGCAAUAUUACGCAUG, for which the “self-splicing fitness (ln)” value by setting is: (30 °C) -2.87 ± 0.11; (37 °C) -2.2 ± 0.12. On the same counts, the results for AAGGAGCAAUAUUACGAACU are -1.63 ± 0.15 and 0.581 ± 0.21.

In the case of UCCAAGCAAUAUUACGAGAG, the “self-splicing fitness (ln)” value is -2.32 ± 0.12 (30 °C) and -1.85 ± 0.14 (37 °C). For the sequence ACUUAGCAAUAUUACGCAGA, the “self-splicing fitness (ln)” value (30 °C) is -2.32 ± 0.26 and the “self-splicing fitness (ln)” value (37 °C) was -0.913 ± 0.15. As for AUGCAGCAAUAUUACGAAUG, the “self-splicing fitness (ln)” value is, setting by setting: (30 °C) -2.15 ± 0.17; (37 °C) -2.51 ± 0.28. On the same counts, the results for GCAAAGCAAUAUUACGUUGA are -1.67 ± 0.088 and -1.03 ± 0.094. The corresponding values for GUAAAGCAAUAUUACGAGGA are -1.81 ± 0.1 and -1.52 ± 0.15.

With UUAAAGCAAUAUUACGUGGA, the “self-splicing fitness (ln)” value runs as follows: (30 °C) -2.45 ± 0.072; (37 °C) -0.864 ± 0.073. For the sequence ACGGAGCAAUAUUACGCCAG, the “self-splicing fitness (ln)” value (30 °C) was -4.18 ± 0.43 and the “self-splicing fitness (ln)” value (37 °C) was -1.11 ± 0.39.
